Source: publication doi:10.1101/2020.03.25.007906 (bioRxiv, 2020)

Experiments:
[1] = biological target: T1, purified recombinant drDnaB (Deinococcus radiodurans R1, UniProt Q9RWW6 1-448); assay: SPR
T1 sequence (looked up): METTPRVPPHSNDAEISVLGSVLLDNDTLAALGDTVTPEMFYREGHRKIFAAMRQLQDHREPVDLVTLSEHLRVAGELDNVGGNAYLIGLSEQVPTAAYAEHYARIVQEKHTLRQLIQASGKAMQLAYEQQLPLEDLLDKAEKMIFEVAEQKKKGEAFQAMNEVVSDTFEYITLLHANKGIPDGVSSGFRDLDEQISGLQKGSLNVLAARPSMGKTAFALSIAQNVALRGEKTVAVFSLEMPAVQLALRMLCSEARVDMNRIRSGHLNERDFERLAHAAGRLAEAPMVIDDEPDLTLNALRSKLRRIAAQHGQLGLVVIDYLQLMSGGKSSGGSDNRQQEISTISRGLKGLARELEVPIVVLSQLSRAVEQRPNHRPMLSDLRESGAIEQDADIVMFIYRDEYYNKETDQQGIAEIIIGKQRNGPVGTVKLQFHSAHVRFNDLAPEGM

[2] = biological target: T2, purified recombinant drDnaA (Deinococcus radiodurans R1, UniProt Q9RYE7 1-466); assay: SPR
T2 sequence (looked up): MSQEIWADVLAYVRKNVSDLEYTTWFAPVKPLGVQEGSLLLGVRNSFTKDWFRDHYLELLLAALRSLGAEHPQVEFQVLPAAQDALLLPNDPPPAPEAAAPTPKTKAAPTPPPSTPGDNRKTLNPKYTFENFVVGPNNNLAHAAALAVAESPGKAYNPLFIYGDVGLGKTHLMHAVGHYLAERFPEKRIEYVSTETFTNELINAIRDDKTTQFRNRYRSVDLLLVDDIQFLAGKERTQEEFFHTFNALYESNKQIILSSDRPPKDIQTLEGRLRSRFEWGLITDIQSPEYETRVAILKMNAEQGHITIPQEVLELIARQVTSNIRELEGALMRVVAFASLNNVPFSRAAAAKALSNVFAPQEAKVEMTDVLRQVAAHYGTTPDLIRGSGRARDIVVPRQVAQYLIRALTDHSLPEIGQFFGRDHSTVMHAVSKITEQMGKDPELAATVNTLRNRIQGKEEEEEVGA

Kd [1]: 971 nM
Kd [2]: 541 nM
B1: recombinant PprA (natural protein, Deinococcus radiodurans, UniProt O32504 1-300, looked up)
chain: MLPLAFLICSGHNKGSMARAKAKDQTDGIYAAFDTLMSTAGVDSQIAALAASEADAGTLDAALTQSLQEAQGRWGLGLHHLRHEARLTDDGDIEILTDGRPSARVSEGFGALAQAYAPMQALDERGLSQWAALGEGYRAPGDLPLAQLKVLIEHARDFETDWSAGRGETFQRVWRKGDTLFVEVARPASAEAALSDAAWDVIASIKDRAFQRELMRRSEKDGMLGALLGARHAGAKANLAQLPEAHFTVQAFVQTLSGAAARNAEEYRAALKTAAAALEEYQGVTTRQLSEVLRHGLRES
